From article doi:10.1101/2024.05.28.596221 come the findings set out here.

In this assay the target is YjfP (K. pneumoniae). Put plainly: crystal structure.

The term stoichiometry N denotes a count of units in the complex or per binding partner. YjfP (enzyme): the stoichiometry N came out at 2.
